The conditions of the data set: Aspergillus oryzae (strain ATCC 42149 / RIB 40), Thermal, DSC, 3/3'-dimethylglutaric acid (DMG) 100 mM, NaCl 2 M, whole UniProt chain shown; for heat capacity change of unfolding / unfolding free energy: 25 °C.

What is called Tm is the temperature at the midpoint of the melting transition.

B1: Guanyl-specific ribonuclease T1 wild type, P00651 (protein)
chain: MMYSKLLTLTTLLLPTALALPSLVERACDYTCGSNCYSSSDVSTAQAAGYQLHEDGETVGSNSYPHKYNNYEGFDFSVSSPYYEWPILSSGDVYSGGSPGADRVVFNENNQLAGVITHTGASGNNFVECT
For the protein B1, the “heat capacity change of unfolding” value runs as follows: (pH 4) 1.59 kcal/mol/K; (pH 5) 1.59 kcal/mol/K; (pH 6) 1.59 kcal/mol/K; (pH 7) 1.59 kcal/mol/K; (pH 8) 1.59 kcal/mol/K. For the same protein, the unfolding free energy runs as follows: (pH 4) 7.43 kcal/mol; (pH 5) 7.39 kcal/mol; (pH 6) 6.91 kcal/mol; (pH 7) 4.54 kcal/mol; (pH 8) 3.63 kcal/mol. For the same protein, the Tm (pH 4) was 72.4 °C; the midpoint of thermal melting (Tm) (pH 5) came out at 73.2 °C; the Tm (pH 6) turned out to be 70.4 °C; the Tm (pH 7) was 66.8 °C; the midpoint of thermal melting (Tm) (pH 8) was 65.4 °C. Moreover, the “unfolding enthalpy (calorimetric)” value reads like this: (pH 4) 93.7 kcal/mol; (pH 5) 93.2 kcal/mol; (pH 6) 90.2 kcal/mol; (pH 7) 71.7 kcal/mol; (pH 8) 63.8 kcal/mol.

(Values after FireProtDB (doi:10.1111/j.1432-1033.1995.tb20418.x).)
